Reference: article PMC11130540, “Does Acinetobacter calcoaceticus glucose dehydrogenase produce self-damaging H2O2?” (Bioscience Reports, 2024)

B1: soluble glucose dehydrogenase (sGDH) from Acinetobacter calcoaceticus, wild-type, holo form (enzyme, UniProt P13650 25-478, looked up)
chain: DVPLTPSQFAKAKSENFDKKVILSNLNKPHALLWGPDNQIWLTERATGKILRVNPESGSVKTVFQVPEIVNDADGQNGLLGFAFHPDFKNNPYIYISGTFKNPKSTDKELPNQTIIRRYTYNKSTDTLEKPVDLLAGLPSSKDHQSGRLVIGPDQKIYYTIGDQGRNQLAYLFLPNQAQHTPTQQELNGKDYHTYMGKVLRLNLDGSIPKDNPSFNGVVSHIYTLGHRNPQGLAFTPNGKLLQSEQGPNSDDEINLIVKGGNYGWPNVAGYKDDSGYAYANYSAAANKSIKDLAQNGVKVAAGVPVTKESEWTGKNFVPPLKTLYTVQDTYNYNDPTCGEMTYICWPTVAPSSAYVYKGGKKAITGWENTLLVPSLKRGVIFRIKLDPTYSTTYDDAVPMFKSNNRYRDVIASPDGNVLYVLTDTAGNVQKDDGSVTNTLENPGSLIKFTYKAK
notes: soluble glucose dehydrogenase (sGDH) of Acinetobacter calcoaceticus, UniProt P13650; native open reading frame on plasmid pGP492; printed number + 24 in P13650; Holo enzyme with the prosthetic group PQQ (found cleaved in the crystals) and calcium ions; No tag is named; also called sGDH WT; WT
B2: soluble glucose dehydrogenase (sGDH) from Acinetobacter calcoaceticus, D143E/Y343F mutant, holo form (enzyme)
chain: DVPLTPSQFAKAKSENFDKKVILSNLNKPHALLWGPDNQIWLTERATGKILRVNPESGSVKTVFQVPEIVNDADGQNGLLGFAFHPDFKNNPYIYISGTFKNPKSTDKELPNQTIIRRYTYNKSTDTLEKPVDLLAGLPSSKEHQSGRLVIGPDQKIYYTIGDQGRNQLAYLFLPNQAQHTPTQQELNGKDYHTYMGKVLRLNLDGSIPKDNPSFNGVVSHIYTLGHRNPQGLAFTPNGKLLQSEQGPNSDDEINLIVKGGNYGWPNVAGYKDDSGYAYANYSAAANKSIKDLAQNGVKVAAGVPVTKESEWTGKNFVPPLKTLYTVQDTYNYNDPTCGEMTFICWPTVAPSSAYVYKGGKKAITGWENTLLVPSLKRGVIFRIKLDPTYSTTYDDAVPMFKSNNRYRDVIASPDGNVLYVLTDTAGNVQKDDGSVTNTLENPGSLIKFTYKAK
notes: soluble glucose dehydrogenase (sGDH) of Acinetobacter calcoaceticus, UniProt P13650, with D143E and Y343F; Holo enzyme with PQQ (found cleaved in the crystals) and calcium ions; No tag is named; also called sGDH D143E/Y343F; Y343F/D143E
B3: soluble glucose dehydrogenase (sGDH) from Acinetobacter calcoaceticus, Y343F mutant, holo form (enzyme)
chain: DVPLTPSQFAKAKSENFDKKVILSNLNKPHALLWGPDNQIWLTERATGKILRVNPESGSVKTVFQVPEIVNDADGQNGLLGFAFHPDFKNNPYIYISGTFKNPKSTDKELPNQTIIRRYTYNKSTDTLEKPVDLLAGLPSSKDHQSGRLVIGPDQKIYYTIGDQGRNQLAYLFLPNQAQHTPTQQELNGKDYHTYMGKVLRLNLDGSIPKDNPSFNGVVSHIYTLGHRNPQGLAFTPNGKLLQSEQGPNSDDEINLIVKGGNYGWPNVAGYKDDSGYAYANYSAAANKSIKDLAQNGVKVAAGVPVTKESEWTGKNFVPPLKTLYTVQDTYNYNDPTCGEMTFICWPTVAPSSAYVYKGGKKAITGWENTLLVPSLKRGVIFRIKLDPTYSTTYDDAVPMFKSNNRYRDVIASPDGNVLYVLTDTAGNVQKDDGSVTNTLENPGSLIKFTYKAK
notes: soluble glucose dehydrogenase (sGDH) of Acinetobacter calcoaceticus, UniProt P13650, with Y343F; Holo enzyme with PQQ (found cleaved in the crystals) and calcium ions; No tag is named; also called sGDH Y343F; single mutant

Target: the molecule itself
Assay: crystal structure; holo-sGDH (around 10 mg/ml) reconstituted with PQQ before crystallization; hanging drop vapor diffusion at 20°C, 20% (w/v) PEG 6000, 100 mM TRIS pH 8.0, with 2 mM zinc chloride (wild-type) or 200 mM lithium chloride (mutants); two monomers in the asymmetric unit

| Protein | stoichiometry N |
| --- | --- |
| B1 | 2 |
| B2 | 2 |
| B3 | 2 |
